{
  "source": "patent US20250019443A1",
  "about": "(DUKE UNIVERSITY, published 2025)",
  "binders": {"B1": {"name": "3H4 IgM (murine HLA-E-VL9-specific IgM monoclonal antibody 3H4) (antibody, V domains shown)", "VH": "EVQLQESGPELVKPGASVKIPCKASGYTFTDYNMDWVKQSHGKSLEWIGDINPNNGGTIYNQKFKGKATLTVDKSSSTAYMELRSLTSEDTAVYYCARPDYYGSSYGWYFDVWGTGTTVTVSS", "VL": "DIVITQSPSSMYASLGERVTITCKASQDINSYLSWFQQKPGKSPKTLIYRANRLVDGVPSRFSGSGSGQDYSLTISSLEYEDMGIYYCLQYDEFPLTFGAGTKLELK", "notes": "also called mAb 3H4; IgM 3H4"}, "B2": {"name": "3H4 Gv3 (antibody, V domains shown)", "VH": "B1 VH with Y101S, Y102A, G103Q, S104Y", "VL": "B1 VL"}, "B3": {"name": "3H4G_v31 (antibody, V domains shown)", "VH": "B1 VH with Y101S, Y102A, G103Q, S104Y, S105R, Y106W, G107N", "VL": "B1 VL", "notes": "also called 3H4_Gv31_G1.4A"}, "B4": {"name": "3H4 Gv7 (antibody, V domains shown)", "VH": "B1 VH with Y101G, Y102A, G103R, S104W", "VL": "B1 VL"}, "B5": {"name": "CA172 (antibody, V domains shown)", "VH": "QVQLVESGGGLVKPGGSLRLSCAASGFTFSDYYMSWIRQAPGKGLEWVSYISSSSSYTNYADSVKGRFTISRDNAKNSLYLQMNSLRAEDTAVYYCARALRYFDWYDYWGQGTLVTVSS", "VL": "EIVLTQSPDFQSVTPKGKVTITCRASQSIGSSLHWYQQKPDQSPKLLIKYASQSFSGVPSRFSGSGSGTEFTLTISSLQPEDFATYYCQQLNSYSPITFGQGTRLEIK"}},
  "key": {"[1]": {"biological_target": "T1, RL9HIV (peptide pulsed K562-HLA-E cells) (human)", "T1 construct": "cell surface", "experiment": "flow cytometry on peptide-pulsed K562-HLA-E cells; AF647 anti-mouse Ig(H+L)"}, "[2]": {"biological_target": "T2, RL9 SIV (peptide pulsed K562-HLA-E cells) (human)", "T2 construct": "cell surface", "experiment": "flow cytometry on peptide-pulsed K562-HLA-E cells; AF647 anti-mouse Ig(H+L)"}, "[3]": {"biological_target": "T3, Mtb44 (peptide pulsed K562-HLA-E cells) (human)", "T3 construct": "cell surface", "experiment": "flow cytometry on peptide-pulsed K562-HLA-E cells; AF647 anti-mouse Ig(H+L)"}, "[4]": {"biological_target": "T4, soluble HLA-E-VL9 complex (HLA-E*01:03, β2M, VL9 peptide) (human)"}, "[5]": {"biological_target": "T4, soluble HLA-E-VL9 complex (HLA-E*01:03, …)", "remark": "listed apart in the source"}, "[6]": {"biological_target": "HLA-E-RL9HIV with a mutation at P1 (arginine to valine) on transfected 293T cells (human, UniProt P61769 21-119; P13747 22-358)", "experiment": "flow cytometry on transfected HEK 293T cells"}, "[7]": {"biological_target": "T4, soluble HLA-E-VL9 complex (HLA-E*01:03, …)", "remark": "listed apart in the source"}, "[8]": {"biological_target": "T4, soluble HLA-E-VL9 complex (HLA-E*01:03, …)", "remark": "listed apart in the source"}, "[9]": {"biological_target": "HLA-E-RL9SIV single chain trimer on transfected 293T cells (human, UniProt P61769 21-119; P13747 22-358)", "experiment": "flow cytometry, SCT-transfected 293T cells, MFI bar chart [panel E]"}},
  "note": "Positions count from the first letter of the chain named. Where two headings read alike, the source gives them in different places.",
  "data": [
    {"binder": "B1", "values": [
      {"measurement": "MFI", "setting": "[1]", "value": 1520},
      {"measurement": "MFI", "setting": "[2]", "value": 1580},
      {"measurement": "MFI", "setting": "[3]", "value": 1180}
    ]},
    {"binder": "B2", "values": [
      {"measurement": "Kd", "setting": "[4]", "value": 223, "unit": "nM"}
    ]},
    {"binder": "B3", "values": [
      {"measurement": "Kd", "setting": "[5]", "value": 62.4, "unit": "nM"},
      {"measurement": "koff", "setting": "[5]", "value": 0.0112, "unit": "s⁻¹"},
      {"measurement": "kon", "setting": "[5]", "value": 180000, "unit": "M⁻¹ s⁻¹"},
      {"measurement": "binding result", "setting": "[6]", "value": "binds"}
    ]},
    {"binder": "B4", "values": [
      {"measurement": "Kd", "setting": "[7]", "value": 994, "unit": "nM"},
      {"measurement": "koff", "setting": "[7]", "value": 0.0349, "unit": "s⁻¹"},
      {"measurement": "kon", "setting": "[7]", "value": 35200, "unit": "M⁻¹ s⁻¹"},
      {"measurement": "Kd", "setting": "[8]", "value": 735, "unit": "nM"},
      {"measurement": "koff", "setting": "[8]", "value": 0.0345, "unit": "s⁻¹"},
      {"measurement": "kon", "setting": "[8]", "value": 47000, "unit": "M⁻¹ s⁻¹"}
    ]},
    {"binder": "B5", "values": [
      {"measurement": "binding result", "setting": "[9]", "value": "no binding (tested: 2 µg/ml)"}
    ]}
  ]
}
